According to the nanobody polyreactivity screen of Harvey et al. (2022):

Test: yeast display, Sf9 membrane polyspecificity reagent, FACS + sequencing; frameworks hold sequencing errors
In short: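 Sorting gates, low and high (top ~1%), were placed on anti-HA fluorescence to track expression and on streptavidin fluorescence to track reagent binding. A clone's polyreactivity label is taken from the gate it came out of. The reagent was 10% biotinylated, detergent-solubilized Sf9 membrane, applied for 1 hour at 4 °C to galactose-induced yeast display cells.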

Row | Sequence | polyreactivity (PSR sort gate)
1 | QVQLVESGGGLVQAGGSLRLSCAASGSISYIYTMGWYRQAPGKERELVAAISGSGSTYYADSVKGRFTISRDNAKNTVYLQMNSLKPEDTAVHYCNAGSGGLNFQEVPQGYDYWGQGTQVTVSS | low polyreactivity
2 | QVQLVESGGGLVQAGGSLRLSCAASGSISYPNAMGWYRQAPGKERELVAAINSGDRTNYADSVKGRFTISRDNAKNTVYLQMNSLKPEDTAVYYCARRRYLLWGGYGYWGQGTQVTVSS | low polyreactivity
3 | QVQLVESGGGLVQAGGSLRLSCAASGSISYSNAMGWYRQAPGKERELVAAISWSTGRTYYADSVKGRFTISRDNAKNTVYLQMNSLKPEDTAVYYCATRLYPGGPYDYWGQGTQVTVSS | high polyreactivity
4 | QVQLVESGGGLVQAGGSLRLSCAASGSISYTYAMGWYRQAPGKERELVAAISYSEGITYYADSVKGRFTISRDNAKNTVYLQMNSLKPEDTAVYYCAVEGVYPYYDQSEYDYWGQGTQVTVSS | high polyreactivity
5 | QVQLVESGGGLVQAGGSLRLSCAASGSISYYYGKGWYRQAPGKERELVAAISTRGGSTYYADSVKGRFTISRDNAKNTVYLQMNSLKPEDTAVYYCNKVYYKRFYYWGQGTQVTVSS | high polyreactivity
6 | QVQLVESGGGLVQAGGSLRLSCAASGSIVEYYAMGWYRQAPGKERELVAAISTGGSTYYADSVKGRFTISRDNAKNTVYLQMNSLKPEDTAVYYCAAEDYHPGADTVGTGYDYWGQGTQVTVSS | low polyreactivity
7 | QVQLVESGGGLVQAGGSLRLSCAASGSIVNYNDMGCYRQAPGKERELVAAIDSSGTSTYYADSVKGRFTISRDNAKNTVYLQMNSLKPEDTAVYYCNADSSLGFGYWGQGTQVTVSS | low polyreactivity
8 | QVQLVESGGGLVQAGGSLRLSCAASGSIVTSYAIGWYRQAPGQERELVATITRRGGSTYYADSVKGRFTISRDNSKNTVYLQMNSLKPEDTAVSYCTARSSTIVYAGDYWGLGTQVTVSS | low polyreactivity
9 | QVQLVESGGGLVQAGGSLRLSCAASGSIVYPYAMGWNRQAPGKERELVAAITGHGGSTYYADSVKGRFTISRDNAKNTVYLQMNSMKPEDTAVYYCAAYRVVYSDAYYYWGQGTQVTVSS | low polyreactivity
10 | QVQLVESGGGLVQAGGSLRLSCAASGSIVYSYAMGWYRQAPGKERELVATISWSGGRTNYADSVKGRITISRDTAKNSVYLLMNSLKPVDTAVYYCAADIPPWGGDYWGQGTQVTVSS | low polyreactivity
11 | QVQLVESGGGLVQAGGSLRLSCAASGSIYDYNAMGWYRQAPGKERELVAAISASGGSTYYADSVKGRFTISRDNAKNTVYLQMNSLKPEDTAVYYCAAGYWSYWSLRMDYWGQGTQVTVSS | high polyreactivity
12 | QVQLVESGGGLVQAGGSLRLSCAASGSIYEINAMGWYRQAPGKERELVAAITGSGGSTHYADSVKGRFTISRDNAKNTVYLQMNSLKPEDTAVYYCAAVPRYQYGYWGQGTQVTVSS | low polyreactivity
13 | QVQLVESGGGLVQAGGSLRLSCAASGSIYGDYAMGWYRQAPGKERELVAAISWRGVRTYYADSVKGRFTISRDNAKNTVYLQMNSLNPEDTAVYYCDAEYYFVNRGAWYDYWGQGTQVTVSS | high polyreactivity
14 | QVQLVESGGGLVQAGGSLRLSCAASGSIYGYTMGWYRQAPGKERELVAAINRRADRTYYADSVKGRFTISRDNAKNTVYLQMNSLKPEDTAVYYCNKGGWYTLGYCGQGTQVTVSS | high polyreactivity
15 | QVQLVESGGGLVQAGGSLRLSCAASGSIYLWKAMGWYRQAPGKERELVAAIDSGGSTYAESVKGRFTISRDNAKNTVYLQMNSLKPEDTAVYYCAAEIPDEWPYDYWGQGTQVTVSS | low polyreactivity
16 | QVQLVESGGGLVQAGGSLRLSCAASGSIYPDYDMGWYRQAPGKERELVAAISSSGDSTYYADSVKGRFTISRDNAKNTVYLQMNSLKPEDTAVYYCAVDGTRSTSNGSEFTGYNYWGQGTHVTVSS | low polyreactivity
17 | QVQLVESGGGLVQAGGSLRLSCAASGSIYVWYDMGWYRQAPGKERELVDTISLSGVSTYYADSVKGRFTISRDNAKNTVYLQMNSLKPEDTAVYYCAADFVEQGEDDYWGQGTQVTVSS | low polyreactivity
18 | QVQLVESGGGLVQAGGSLRLSCAASGSIYYNAMGWYRQAPGKERELVAAISTSGGTTYYADSVKGRFTISRDNAKNTVYLQMNSLKPEDTAVYYCNALSVPDYDYWGQGTQVTVSS | high polyreactivity
19 | QVQLVESGGGLVQAGGSLRLSCAASGSIYYRYAMGWYRQAPGKERELVAAISKRGGSTYYADSVKGRFTISRDNAKITVYLQMNRLKPEDTAVYYCAAEVSSFLYTPSYSTDDYWGQGTQVTVSS | high polyreactivity
20 | QVQLVESGGGLVQAGGSLRLSCAASGSIYYWYASGWYIHAPGKERELVAAITSGGSTNYADSVKGRFTISRDNAKNTVYLQMNSLKPEDTAVYYCAASSVLTNHDYWGQGTQVTVSS | low polyreactivity
21 | QVQLVESGGGLVQAGGSLRLSCAASGSLFGRYAMGWYRQAPGTEREFVAAISRGATNTYYADSVKGRFTISRDNAKNTVYLQMNSLKPEDTAVYYCARTQRYDYGYDYWGQGTQVTVSS | low polyreactivity
22 | QVQLVESGGGLVQAGGSLRLSCAASGSLFRINAMGWYRQAPGKERELVAAITGRVGSTYYADTVKGRFTISRDNAQNTVYLQMNSLKPEDTAVYYCAARAGSSRYTREYRYDYWGQGTQVTVSS | high polyreactivity

Row | Sequence | polyreactivity (PSR sort gate)
23 | QVQLVESGGGLVQAGGSLRLSCAASGSLFTSYAMGWYRQAPGKERELVAAIRESGGRTYYADSVKGRFTISRDNAKNTVYLQMNSLKPEDTAVYYCAADSRVGFGRLYGYWGQGTQVTVSS | high polyreactivity
24 | QVQLVESGGGLVQAGGSLRLSCAASGSLFYSNTMGWYRQAPGKERELVAAISRGGSTYYADSVKGRFTISRDNAKNTVYLQMNSLKPEDTAVYYCAARYRWAPAYDYWGQGTQVTVSS | high polyreactivity
25 | QVQLVESGGGLVQAGGSLRLSCAASGSLIGQNAMGWYRQAPGKERELVATISRSGARTYYADSVKGRFTISRDIAKNTVYLQMNSLKPEDTAVYYCAARLLSVGVPMYSWGQGTQVTVSS | high polyreactivity
26 | QVQLVESGGGLVQAGGSLRLSCAASGSMFGYYAMGWYRQATGKERELVASIRRGSSTNYADSVKGRFTISRDNAKNTVYLQMNSLKPEDTAVYYCNAVLLSYDARGYSNLYDYWGQGPQVTVSS | low polyreactivity
27 | QVQLVESGGGLVQAGGSLRLSCAASGSMFSTYAMGWYRQAPGKERELVAASSRSGGSTYYADSVKGRFTISRDNAKNTVYLQMNSLKPEDTADYYCAKVARRQRYDYWGQGTQVTVSS | high polyreactivity
28 | QVQLVESGGGLVQAGGSLRLSCAASGSNFANYAMGWYIQAHGKERELVAAISWSGSSTYYADSVKGRFTISRYNAKNTVYLQMNSLKPEDTAVYYCAADYATPTWEYYYWGQGTQVTVSS | low polyreactivity
29 | QVQLVESGGGLVQAGGSLRLSCAASGSNFDPIVMGGYRKAPGKERELVAAIDVSGGSTYYADSVKGRFTISRDNAKNTVYLQMNSLKPEDTAVYYCAADAEGSASKYDYWGQGTQVTVSS | low polyreactivity
30 | QVQLVESGGGLVQAGGSLRLSCAASGSNFETNSMGGYRQAPGQERELVAVIWRGASTYYADSVKARFTISRDNAKNTVNLQMNSLKPDDTAVYYCNARPAYAGRYAYTRYYWGQGTQVTVSS | low polyreactivity
31 | QVQLVESGGGLVQAGGSLRLSCAASGSNFFLYAMGWYRQAPGKEREFVAAITGTADSTYYADSVKGRFTISRDDAKNTVYLQMNSLKPEDTAVYYCATDYWSSVKLDDYWGQGTQVTVSS | low polyreactivity
32 | QVQLVESGGGLVQAGGSLRLSCAASGSNFGEYAMGWYRQAPGKERELVAAITSGGNTYYADSVKGRFTISRDNAKNTVYLQMNSLKPEDTAVYYCAATRTRYWGGDYWGQGTQVTVSS | low polyreactivity
33 | QVQLVESGGGLVQAGGSLRLSCAASGSNFGYYAMAWYRQAPGKERELVAVITWNTGNTYYADSVKGRFTISRDNAKNTVYLQMNRLKPEDTAVYYCAADQTGWGDTYDYWGQGTEVTVSS | low polyreactivity
34 | QVQLVESGGGLVQAGGSLRLSCAASGSNFHPYAMGWYRPAPGKEREFVAAITFRGSTYYADSVKGRFTISRDNAKNTVYLQLNSLKPEDTAVYYCAARYNIFRRGSRNYDYWGQGTEVTVSS | high polyreactivity
35 | QVQLVESGGGLVQAGGSLRLSCAASGSNFINNAMGWYRQAPGKERELVAAISYSGGRTYYADSVKGRFTISRDNAKNTVYLQMNSLKPEDTAVYYCAADRSHRMNWGQGTQVTVSS | high polyreactivity
36 | QVQLVESGGGLVQAGGSLRLSCAASGSNFKRYTMGLYRQAPGKEWELVAAISTSSGSTYYADSVKGRFTISRDNANNSVYLQMNSLKPEDTAVYYCAAVRHRQTYPKYNYWGQGTQVTVSS | high polyreactivity
37 | QVQLVESGGGLVQAGGSLRLSCAASGSNFLDNAMGWYRQAPGKERELVAAITSSGGSTYYADSVKGRFTISRDNAKNTVYLQMNSLKPEDTAVYYCAADEWIVHEGYYSSYYYWGQGTQVTVSS | low polyreactivity
38 | QVQLVESGGGLVQAGGSLRLSCAASGSNFLRNAMGWYRQAPGKERELVAAIRWNAGSTYYADSVKGRFTISRDNAKNTVYLQMNSLKPEDTAVYFCAADGYYGRGYWIRTLKFDYWGQGTQVTVSS | high polyreactivity
39 | QVQLVESGGGLVQAGGSLRLSCAASGSNFLYSAMGWYRQAPGKERELVAVISWSGVSTYYADSVKGRFTISRDNAKNTVYLQMNSLKPEDTAVYYCNTGNHYIRTYGYWGQGTQVTVSS | low polyreactivity
40 | QVQLVESGGGLVQAGGSLRLSCAASGSNFPYYALGWYRQAPGNERELVATITYRGGSTNYADSVKGRFTISRDNAKNTVYLQMNSLKPEDTAVYYCADYGYVLASPYPYSFVKLGYWGQGTQVTVSS | low polyreactivity
41 | QVQLVESGGGLVQAGGSLRLSCAASGSNFSSNAMGWYRQAPGKERELFAAITWSGGSTYYADSVKGRFTISRDNAKKTVYFEMNSLKPEDTAGFYCNARRNVRQTFGYEYWGQGTQVTVSS | high polyreactivity
42 | QVQLVESGGGLVQAGGSLRLSCAASGSNFSYYAMGWYRQAPGKERELVAAITWRSGRTYYADSVKGRFTISRDNAKNTVYLQMNSLKPEDTAVYYCAAYWWRVKYHGYYYWGQGTQVTVSS | high polyreactivity
43 | QVQLVESGGGLVQAGGSLRLSCAASGSNFTFNALGWYRQAPGKERELVAAISKSGDRTYADSVKGRFTISRDNAKNTVYLQMNSLKPDDTAVYYCAADFSVSRYDYWGQGTQVTVSS | low polyreactivity
